Measured values reported in patent publication US20160017353A1.

Target: EGF receptor (EGFR) (human) (UniProt P00533)
Test: cell-based or functional assay

recombinant HSA-EGF fusion protein (human serum albumin fused to the N-terminal end of human EGF), secreted from transgenic rice cell line H-EGF 43 (from UniProt P02768 25-609) (ligand)
HK-2 cell proliferation (cell count), 150 ng/ml total rice medium protein (5 ng H-EGF): 2.9 fold
